One block for each binder: values may come before it.
What was measured:
PYL10-nLUC = molecular target: T1, PYL10-nLUC (Arabidopsis thaliana, UniProt Q8H1R0 1-183); experiment: firefly luciferase complementation in protoplasts (stronger group)
T1 construct: LUC complementation assay in protoplasts; also called PYLs-nLUC; not shown: N-terminal domain of firefly luciferase
T1 sequence: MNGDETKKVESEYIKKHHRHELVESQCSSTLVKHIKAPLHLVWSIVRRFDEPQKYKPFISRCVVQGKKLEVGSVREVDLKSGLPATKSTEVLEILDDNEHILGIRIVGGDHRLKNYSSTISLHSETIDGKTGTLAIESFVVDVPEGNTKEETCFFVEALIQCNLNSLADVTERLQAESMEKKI
Description: (§1) To further characterize the interactions between PYL13 and PYLs in vivo, their interactions in protoplasts were examined by the firefly luciferase (LUC) complementation assay. PYL13 was fused to the C-terminal domain of LUC (PYL13-cLUC), and PYLs were fused to the N-terminal domain of LUC (PYLs-nLUC), and co-expressed in protoplasts. After transfection, protoplasts were incubated overnight under light at room temperature, and the LUC activities in living protoplasts were measured. Error bars indicate s.e.m. (n=6). […] PYL13 binds more strongly to PYR1, PYL1-5, PYL7, and PYL10-11 than to PYL6, PYL8-9, or PYL13 (FIG. 5B).

PYL3-nLUC = molecular target: T2, PYL3-nLUC (Arabidopsis thaliana, UniProt Q9SSM7 1-209); experiment: as above
T2 construct: LUC complementation assay in protoplasts; also called PYLs-nLUC; not shown: N-terminal domain of firefly luciferase
T2 sequence: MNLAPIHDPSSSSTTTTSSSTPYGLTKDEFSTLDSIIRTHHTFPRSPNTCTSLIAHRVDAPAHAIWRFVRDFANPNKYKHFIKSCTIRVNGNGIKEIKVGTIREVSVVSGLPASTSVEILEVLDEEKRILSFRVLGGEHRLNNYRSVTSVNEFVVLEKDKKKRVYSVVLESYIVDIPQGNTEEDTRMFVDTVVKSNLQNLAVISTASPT
Description: as §1

PYL7-nLUC = molecular target: T3, PYL7-nLUC (Arabidopsis thaliana, UniProt Q1ECF1 1-211); experiment: as above
T3 construct: LUC complementation assay in protoplasts; also called PYLs-nLUC; not shown: N-terminal domain of firefly luciferase
T3 sequence: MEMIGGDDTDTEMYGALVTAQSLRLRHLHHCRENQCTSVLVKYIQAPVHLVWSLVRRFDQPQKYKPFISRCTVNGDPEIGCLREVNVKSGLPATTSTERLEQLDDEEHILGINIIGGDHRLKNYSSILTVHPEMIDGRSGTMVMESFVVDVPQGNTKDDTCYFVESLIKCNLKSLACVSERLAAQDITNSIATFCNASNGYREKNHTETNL
Description: as §1

PYL5-nLUC = molecular target: T4, PYL5-nLUC (Arabidopsis thaliana, UniProt Q9FLB1 1-203); experiment: as above
T4 construct: LUC complementation assay in protoplasts; also called PYLs-nLUC; not shown: N-terminal domain of firefly luciferase
T4 sequence: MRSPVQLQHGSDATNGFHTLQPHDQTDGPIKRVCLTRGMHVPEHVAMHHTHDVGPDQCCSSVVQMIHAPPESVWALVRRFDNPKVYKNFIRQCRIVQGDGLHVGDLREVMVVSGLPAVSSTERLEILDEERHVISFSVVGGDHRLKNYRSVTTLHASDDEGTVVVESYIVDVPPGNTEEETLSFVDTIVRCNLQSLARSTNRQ
Description: as §1

PYL4-nLUC = molecular target: T5, PYL4-nLUC (Arabidopsis thaliana, UniProt O80920 1-207); experiment: as above
T5 construct: LUC complementation assay in protoplasts; also called PYLs-nLUC; not shown: N-terminal domain of firefly luciferase
T5 sequence: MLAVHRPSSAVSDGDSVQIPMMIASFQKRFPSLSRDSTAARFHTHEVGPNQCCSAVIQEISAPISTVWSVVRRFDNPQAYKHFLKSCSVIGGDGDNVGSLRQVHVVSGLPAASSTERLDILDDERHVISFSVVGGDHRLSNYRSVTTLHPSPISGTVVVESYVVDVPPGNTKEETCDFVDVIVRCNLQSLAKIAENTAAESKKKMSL
Description: as §1

PYR1-nLUC = molecular target: T6, PYR1-nLUC (Arabidopsis thaliana, UniProt O49686 1-191); experiment: as above
T6 construct: LUC complementation assay in protoplasts; also called PYLs-nLUC; not shown: N-terminal domain of firefly luciferase
T6 sequence: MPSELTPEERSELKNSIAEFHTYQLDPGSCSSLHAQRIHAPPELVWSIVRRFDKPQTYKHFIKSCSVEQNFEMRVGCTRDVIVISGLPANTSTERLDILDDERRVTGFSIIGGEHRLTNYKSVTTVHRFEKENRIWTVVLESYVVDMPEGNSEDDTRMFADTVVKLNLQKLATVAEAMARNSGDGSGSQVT
Description: as §1

PYL8-nLUC = molecular target: T7, PYL8-nLUC (Arabidopsis thaliana, UniProt Q9FGM1 1-188); experiment: firefly luciferase complementation in protoplasts (weaker group)
T7 construct: LUC complementation assay in protoplasts; also called PYLs-nLUC; not shown: N-terminal domain of firefly luciferase
T7 sequence: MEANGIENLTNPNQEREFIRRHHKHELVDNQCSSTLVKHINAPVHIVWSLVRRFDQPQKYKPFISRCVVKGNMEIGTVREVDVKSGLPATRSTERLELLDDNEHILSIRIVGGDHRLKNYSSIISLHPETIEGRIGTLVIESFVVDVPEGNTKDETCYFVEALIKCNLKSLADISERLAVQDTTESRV
Description: as §1

PYL6-nLUC = molecular target: T8, PYL6-nLUC (Arabidopsis thaliana, UniProt Q8S8E3 1-215); experiment: as above
T8 construct: LUC complementation assay in protoplasts; also called PYLs-nLUC; not shown: N-terminal domain of firefly luciferase
T8 sequence: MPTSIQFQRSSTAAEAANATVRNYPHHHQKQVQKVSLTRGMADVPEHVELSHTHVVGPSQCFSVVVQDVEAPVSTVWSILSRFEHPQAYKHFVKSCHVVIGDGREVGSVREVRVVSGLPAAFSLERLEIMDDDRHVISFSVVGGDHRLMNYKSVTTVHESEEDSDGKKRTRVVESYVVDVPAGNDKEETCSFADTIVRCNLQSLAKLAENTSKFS
Description: as §1

PYL13-nLUC = molecular target: T9, PYL13-nLUC (Arabidopsis thaliana, UniProt Q9SN51 1-164); experiment: firefly luciferase complementation in protoplasts (weaker group; PYL13 with itself)
T9 construct: LUC complementation assay in protoplasts; also called PYL13 fused to the N-terminal domain of LUC; not shown: N-terminal domain of firefly luciferase
T9 sequence: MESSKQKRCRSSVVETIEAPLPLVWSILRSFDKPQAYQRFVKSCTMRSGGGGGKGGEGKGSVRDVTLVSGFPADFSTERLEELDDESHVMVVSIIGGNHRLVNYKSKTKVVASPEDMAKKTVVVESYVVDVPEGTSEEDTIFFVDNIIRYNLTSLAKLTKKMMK
Description: as §1

[1] = molecular target: T10, HAI2 fused to the GAL4-activating domain (AD) (Arabidopsis, UniProt Q9LNW3 1-442); experiment: yeast two-hybrid, growth on media lacking His and His/Ade, with and without ABA (ABA-independent)
T10 construct: Yeast two-hybrid construct
T10 sequence (looked up): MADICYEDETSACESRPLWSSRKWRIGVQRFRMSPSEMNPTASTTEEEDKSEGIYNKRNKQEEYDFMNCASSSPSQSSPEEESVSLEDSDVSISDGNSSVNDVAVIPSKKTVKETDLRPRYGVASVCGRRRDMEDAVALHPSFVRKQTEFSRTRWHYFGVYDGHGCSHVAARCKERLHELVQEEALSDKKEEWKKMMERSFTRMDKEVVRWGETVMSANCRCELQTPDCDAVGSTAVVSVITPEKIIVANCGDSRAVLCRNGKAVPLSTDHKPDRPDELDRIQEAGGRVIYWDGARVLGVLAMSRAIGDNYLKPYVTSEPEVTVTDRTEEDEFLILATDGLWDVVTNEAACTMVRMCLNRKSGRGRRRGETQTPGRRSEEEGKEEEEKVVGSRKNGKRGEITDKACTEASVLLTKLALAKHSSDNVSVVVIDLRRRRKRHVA
Description: To investigate how PYL13 may function in plants, the interaction between PYL13 and clade A PP2Cs in yeast two-hybrid assays was examined, as shown in FIG. 3. […] PYL13 binds strongly with ABI1, ABI2, PP2CA, and HAI2 but weakly with HAB1 and HAI1 (FIG. 3A). […] PYL13 fused to the GAL4-DNA-binding domain (BD) was used as […]. Interaction was determined by growth assay on media lacking His and His/Ade in the presence and absence of ABA. Dilutions (10⁻¹, 10⁻², and 10⁻³) of saturated cultures were spotted onto the plates, which were photographed after 5 days.

binding result (PYL10-nLUC): binds
binding result (PYL3-nLUC): binds
binding result (PYL7-nLUC): binds
binding result (PYL5-nLUC): binds
binding result (PYL4-nLUC): binds
binding result (PYR1-nLUC): binds
binding result (PYL8-nLUC): binds
binding result (PYL6-nLUC): binds
binding result (PYL13-nLUC): binds
B1: PYL13-cLUC (other)
chain: T9 sequence
notes: LUC complementation assay in protoplasts; also called PYL13 fused to the C-terminal domain of LUC; not shown: C-terminal domain of firefly luciferase

binding result [1]: binds
B2: PYL13 fused to the GAL4-DNA-binding domain (BD) (other, not shown: small tags and cut ends)
chain: T9 sequence
notes: also called BD-PYL13

From patent US20150074844A1 (PURDUE RESEARCH FOUNDATION, published 2015)
